Reference: publication PMC3290565, “Pentachlorophenol Induction of the Pseudomonas aeruginosa mexAB-oprM Efflux Operon: Involvement of Repressors NalC and MexR and the Antirepressor ArmR”

Legend:
[1] = target: T1, NalC-His (Pseudomonas aeruginosa K767, UniProt Q9HXS0 1-213); assay: EMSA; 300-2000 ng NalC-His, 40 ng DNA; conditions: protein: recombinant; tags: C-terminal His (pET23a); chain copies: 2; blunt
[2] = target: T1, NalC-His; assay: EMSA; data not shown; conditions: protein: recombinant; tags: C-terminal His (pET23a); chain copies: 2

Row | Binder | binding result [1] | binding result [2]
1 | NalC-2 (endpoints IV) (dsDNA) DNA 1: TTGGCAAGCACTTCCGCTCATTCCTCCGCCTTGCCTCCCGC DNA 2: GCGGGAGGCAAGGCGGAGGAATGAGCGGAAGTGCTTGCCAA | no binding | –
2 | NalC-1 (endpoints III) (dsDNA) DNA 1: TGGTCATTTAAGAACTGTATCGTACAGTACTGTTTTGGCAA DNA 2: TTGCCAAAACAGTACTGTACGATACAGTTCTTAAATGACCA | binds | –
3 | 21-bp inverted repeat only (dsDNA) DNA 1: AGAACTGTATCGTACAGTACT DNA 2: AGTACTGTACGATACAGTTCT | – | no binding
